Measurements from IntAct's records for PubMed 17997972.

B1: Nuclear distribution protein nudE-like 1 (Homo sapiens), Q9GZM8 (parent)
chain: MDGEDIPDFSSLKEETAYWKELSLKYKQSFQEARDELVEFQEGSRELEAELEAQLVQAEQRNRDLQADNQRLKYEVEALKEKLEHQYAQSYKQVSVLEDDLSQTRAIKEQLHKYVRELEQANDDLERAKRATIVSLEDFEQRLNQAIERNAFLESELDEKESLLVSVQRLKDEARDLRQELAVRERQQEVTRKSAPSSPTLDCEKMDSAVQASLSLPATPVGKGTENTFPSPKAIPNGFGTSPLTPSARISALNIVGDLLRKVGALESKLAACRNFAKDQASRKSYISGNVNCGVLNGNGTKFSRSGHTSFFDKGAVNGFDPAPPPPGLGSSRPSSAPGMLPLSV
partner: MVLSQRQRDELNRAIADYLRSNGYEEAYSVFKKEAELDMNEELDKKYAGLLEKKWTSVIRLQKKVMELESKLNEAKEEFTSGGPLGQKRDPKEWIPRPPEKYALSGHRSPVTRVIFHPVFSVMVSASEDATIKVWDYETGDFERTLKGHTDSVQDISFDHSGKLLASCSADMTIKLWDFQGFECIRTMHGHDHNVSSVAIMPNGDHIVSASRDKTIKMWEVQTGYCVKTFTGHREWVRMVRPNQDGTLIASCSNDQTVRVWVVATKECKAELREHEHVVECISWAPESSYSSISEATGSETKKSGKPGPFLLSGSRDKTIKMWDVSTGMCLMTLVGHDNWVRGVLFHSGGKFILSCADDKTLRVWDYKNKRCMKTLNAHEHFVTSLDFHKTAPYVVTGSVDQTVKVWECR

Variants of: B1
Conditions: with lis1_mouse Pafah1b1, P63005

effect of a mutation on the interaction	Variant
disrupting interaction	MDGEDIPDFSSLKEETAYWKELSLKYKQSFQEARDELVEFQEGSRELEAELEAQLVQAEQRNRDLQADNQRLKYEVEALKEKLEHQYAQSYKQVSVLEDDLSQTRAIKEQLHKYVRELEQANDDLERAKAATIVSLEDFEQRLNQAIERNAFLESELDEKESLLVSVQRLKDEARDLRQELAVRERQQEVTRKSAPSSPTLDCEKMDSAVQASLSLPATPVGKGTENTFPSPKAIPNGFGTSPLTPSARISALNIVGDLLRKVGALESKLAACRNFAKDQASRKSYISGNVNCGVLNGNGTKFSRSGHTSFFDKGAVNGFDPAPPPPGLGSSRPSSAPGMLPLSV [R130A]
disrupting interaction	MDGEDIPDFSSLKEETAYWKELSLKYKQSFQEARDELVEFQEGSRELEAELEAQLVQAEQRNRDLQADNQRLKYEVEALKEKLEHQYAQSYKQVSVLEDDLSQTRAIKEQLHKYVRELAQANDDLERAKRATIVSLEDFEQRLNQAIERNAFLESELDEKESLLVSVQRLKDEARDLRQELAVRERQQEVTRKSAPSSPTLDCEKMDSAVQASLSLPATPVGKGTENTFPSPKAIPNGFGTSPLTPSARISALNIVGDLLRKVGALESKLAACRNFAKDQASRKSYISGNVNCGVLNGNGTKFSRSGHTSFFDKGAVNGFDPAPPPPGLGSSRPSSAPGMLPLSV [E119A]
